Test results: publication PMC7137648
Like-named read-outs stand apart in the source and are kept apart here.

How the values were obtained:
C1q (Homo sapiens) [1] = molecular target: C1q (Homo sapiens) (UniProt P02745); details: cited from earlier work
[2] = molecular target: complement protein C1q (human) (UniProt P02745); experiment: SPR; N-glycosylation site mutants of SR-F1(20-421) with C1q (Figures S5A-C), n = 2; which partner was immobilised is not told in the text shown; apparent affinity
C1q (Homo sapiens) [3] = molecular target: C1q (Homo sapiens) (UniProt P02745); details: cited from earlier work; remark: listed apart in the source

C1q (Homo sapiens), sequence (P02745 23-245, chain 1 of 3): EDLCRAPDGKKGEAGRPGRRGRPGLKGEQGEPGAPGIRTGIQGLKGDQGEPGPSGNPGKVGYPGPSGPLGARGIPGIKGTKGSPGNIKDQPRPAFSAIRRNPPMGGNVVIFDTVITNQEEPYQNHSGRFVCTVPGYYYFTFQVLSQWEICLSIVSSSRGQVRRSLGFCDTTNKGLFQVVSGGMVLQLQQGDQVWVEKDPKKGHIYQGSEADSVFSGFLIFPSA
C1q (Homo sapiens), sequence (P02746 28-253, chain 2 of 3, further chain): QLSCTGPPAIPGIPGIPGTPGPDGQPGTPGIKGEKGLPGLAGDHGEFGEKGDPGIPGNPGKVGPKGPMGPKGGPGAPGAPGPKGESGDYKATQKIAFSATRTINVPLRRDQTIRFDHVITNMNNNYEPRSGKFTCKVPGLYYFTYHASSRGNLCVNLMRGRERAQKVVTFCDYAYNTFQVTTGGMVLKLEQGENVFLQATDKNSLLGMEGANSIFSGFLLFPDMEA
C1q (Homo sapiens), sequence (P02747 29-245, chain 3 of 3, further chain): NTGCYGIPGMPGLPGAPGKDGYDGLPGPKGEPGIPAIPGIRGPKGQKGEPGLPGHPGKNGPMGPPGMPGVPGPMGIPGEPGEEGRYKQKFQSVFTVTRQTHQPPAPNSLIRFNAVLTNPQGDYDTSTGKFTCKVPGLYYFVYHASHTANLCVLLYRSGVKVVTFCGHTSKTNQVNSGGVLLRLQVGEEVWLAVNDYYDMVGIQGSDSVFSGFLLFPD
calreticulin, sequence (P27797 18-417): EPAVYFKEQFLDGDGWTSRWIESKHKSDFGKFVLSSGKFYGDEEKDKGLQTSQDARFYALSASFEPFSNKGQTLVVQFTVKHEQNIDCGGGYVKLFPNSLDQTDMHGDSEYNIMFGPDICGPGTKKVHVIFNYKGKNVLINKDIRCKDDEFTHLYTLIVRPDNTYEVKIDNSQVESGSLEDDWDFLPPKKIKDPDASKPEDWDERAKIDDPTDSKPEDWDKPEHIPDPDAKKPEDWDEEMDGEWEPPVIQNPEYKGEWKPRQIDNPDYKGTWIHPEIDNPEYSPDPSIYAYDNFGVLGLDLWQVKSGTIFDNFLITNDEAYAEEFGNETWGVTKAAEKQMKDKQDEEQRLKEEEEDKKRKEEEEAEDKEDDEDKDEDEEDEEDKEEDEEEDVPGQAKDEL
SR-F1 ECD, sequence (Q14162 20-421): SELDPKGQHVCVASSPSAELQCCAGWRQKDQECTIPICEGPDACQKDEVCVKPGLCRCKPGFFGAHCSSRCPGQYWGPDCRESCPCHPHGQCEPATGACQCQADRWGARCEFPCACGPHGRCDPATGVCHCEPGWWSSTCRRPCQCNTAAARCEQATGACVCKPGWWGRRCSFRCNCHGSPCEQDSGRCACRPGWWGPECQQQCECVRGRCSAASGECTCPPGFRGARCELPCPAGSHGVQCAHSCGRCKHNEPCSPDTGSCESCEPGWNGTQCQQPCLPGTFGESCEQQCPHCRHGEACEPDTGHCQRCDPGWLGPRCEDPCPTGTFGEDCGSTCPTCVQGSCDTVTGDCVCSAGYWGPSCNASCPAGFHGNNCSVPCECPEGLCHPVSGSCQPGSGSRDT
complement protein C1q (human), sequence (P02745 23-245, chain 1 of 3): as the sequence (P02745 23-245, chain 1 of 3) above
complement protein C1q (human), sequence (P02746 28-253, chain 2 of 3, further chain): as the sequence (P02746 28-253, chain 2 of 3, further chain) above
complement protein C1q (human), sequence (P02747 29-245, chain 3 of 3, further chain): as the sequence (P02747 29-245, chain 3 of 3, further chain) above

## SR-F1 ECD (from UniProt Q14162)
C1q (Homo sapiens) [1]
  Kd: 124 nM

## SR-F1(20-421) N289Q (from UniProt Q14162 20-421) (domain or fragment)
[2]
  Kd: 581 nM

## calreticulin (from UniProt P27797)
C1q (Homo sapiens) [3]
  Kd: 120 nM
